# Experiments:
# [1] = molecular target: AP205 capsid virus-like particle displaying the complementary Catcher (SpyCatcher-VLP) (not stated | Acinetobacter phage AP205); assay: SDS-PAGE of covalent Tag/Catcher coupling (densitometry); N-SliC or C-SliC mixed with complementary SpyCatcher VLPs at a molar ratio of 1:3, 2 h, room temperature, PBS; covalently coupled band at ~45 kDa; coupling efficiency by densitometry (ImageQuant)
# [2] = molecular target: c-type human lysozyme (human) (UniProt P61626)
# Chain of UniProt P61626 (P61626 19-148): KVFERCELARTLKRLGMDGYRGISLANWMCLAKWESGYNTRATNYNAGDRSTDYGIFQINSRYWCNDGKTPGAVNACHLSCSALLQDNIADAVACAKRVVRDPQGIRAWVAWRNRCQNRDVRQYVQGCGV
substance,measurement,setting,value
SliC with the N-terminal SpyTag (N-SliC),cVLP subunits carrying SliC (of 180) (subunits per cVLP),[1],140
same,coupling efficiency,[1],77%
same,"lytic activity of HL (2.5 µM) on DQ lysozyme substrate (EnzChek Lysozyme Assay Kit), N-SliC 0-5 µM, 30 min at 37°C before substrate",[2],> 1.25 µM
